{"source": "patent US20060073572A1", "about": "“Cytokine structurally related to IL-17” (The Johns Hopkins University, priority 2001, published 2006)", "molecules": {"B1": {"name": "ML-1: new member of the IL-17 cytokine family, SEQ ID NO:2; His-tagged recombinant protein expressed in COS-7 cells and affinity purified (protein, listed as Homo sapiens)", "chain": "MKLDIGIINENQRVSMSRNIESRSTSPWNYTVTWDPNRYPSEVVQAQCRNLGCINAQGKEDISMNSVPIQQETLVVRRKHQGCSVSFQLEKVLVTVGCTCVTPVIHHVQ", "modifications": "His tag"}}, "format_in_all_cases": "cell-based, human", "key": {"ERK1/2": {"test_system": "ERK1/2", "test": "Western blotting of ERK1/2 phosphorylation in PBECs", "conditions": "ML-1 100 ng/ml", "method": "(§1) FIGS. 6A-6D. Kinetic activation of ERK1/2 by ML-1 in PBECs (FIG. 6A) and HUVECs (FIG. 6B). The cells were incubated with or without ML-1 (100 ng/ml) for different time points as indicated. Western blotting analysis was performed by using antibodies against different MAP kinases as described in Example 8. FIGS. 6C and 6D. Effect of PD98059 on ML-1-induced phosphorylation of ERK1/2 in PBECs (FIG. 6C) and HUVECs (FIG. 6D). The cells were preincubated with PD98059 ([…]) or DMSO vehicle control for 1 hour, followed by stimulation of PBECs and HUVECs with medium or ML-1 for 20 minutes or 10 minutes, respectively. The results shown are representative of three separate experiments.\nFor analysis of activation of MAP kinases, PBECs were treated with IL-17 (100 ng/ml) for various time periods, with or without the MEK 1/2 inhibitor PD98059 ([…]; Calbiochem, La Jolla, Calif.) (15), the p38 inhibitor SB202190 (0.5-10 μM; ref. 16), or a vehicle control, DMSO (Me2SO) for 1 hour. […] Following the treatment, the cells were washed with ice-cold PBS. Cell pellets were immediately lysed in cold lysis buffer [20 mM Tris (pH 7.4), 4 mM EDTA, 2 mM EGTA, 1 mM PMSF, […] aprotinin, 200 mg/ml leupeptin, 50 mM NaF, 5 mM NaRP2O7, 1 mM Na3VO4, and 1% Nonidet P40; all purchased from Sigma]. Extracts (1×10^6 cell equivalents/lane) were suspended with an equal volume of 2× loading buffer [0.1 M Tris-HCl (pH 6.8)], 4% SDS, 0.005% bromophenol blue, and 20% glycerol) containing 2-ME (0.7 M) and subjected to 4-20% Tris-glycine gel electrophoresis (NOVEX, San Diego, Calif.). Gels were then transferred to PVDF membranes (BIO-RAD, Hercules, Calif.) with a Trans Blot apparatus (NOVEX). The membranes were immersed overnight in This-buffered saline/Tween 20 containing 5% nonfat dry skim milk (Carnation, Los Angeles, Calif.).\n(§2) Immunoreactive proteins were detected using antibodies against various kinases and phosphorylated kinases. […] Western blotting detection reagents (Amersham) and Hyper ECL luminescence detection film (Amersham) were used. […]"}, "IL-8 [1]": {"test_system": "IL-8", "test": "IL-8 expression in PBECs (ELISA, RT-PCR)", "conditions": "ML-1 10 and 100 ng/ml, 24 and 48 hours, ELISA", "method": "(§3) FIG. 5. Analysis of IL-6 (FIG. 5A) and IL-8 (FIG. 5B) expression in primary bronchial epithelial cells (PBECs) and human umbilical vein endothelial cells (HUVECs) stimulated by ML-1. The IL-6 and IL-8 protein release in the supernatant was determined by ELISA as described in Example 8. The results were expressed as mean+SD (n=6). *p<0.05 was considered significant vs control.\n(§4) FIG. 7A-7D. Effect of PD98059 on IL-6 (FIG. 7A) and IL-8 (FIG. 7B) protein production in PBECs and HUVECs. The cells were preincubated with varying concentrations of PD98059, SB202190, or DMSO vehicle control for 1 hour, followed by stimulation with ML-1 (100 ng/ml) for 24 hours. The results are expressed as the mean+SD (n=6). *P<0.05 when compared to cultures without the addition of PD98059. FIGS. 7C and 7D. Semi-quantitative analysis of gene expression for IL-6 (FIG. 7C) and IL-8 (FIG. 7D) by RT-PCR. The cells were preincubated as described above and treated with ML-1 for 4 hours. RT-PCR was performed as described in Example 8. The results shown are representative of three separate experiments.\nPrimary bronchial epithelial cells (PBECs) were purchased from Clonetics (San Diego, Calif.) and cultured in bronchial epithelial basal medium (Clonetics) containing 0.5 ng/ml human recombinant epidermal growth factor (EGF), 52 mg/ml bovine pituitary extract, 0.1 mg/ml retinoic acid, 0.5 mg/ml hydrocortisone, 5 mg/ml insulin, 10 mg/ml transferrin, 0.5 mg/ml epinephrine, 6.5 ng/ml triiodothyronine, […] gentamicin, and 50 pg/ml amphotericin-B (Clonetics). […]\n(§5) The amplification reaction was performed for 23 cycles with denaturation at 94° C. for 45 seconds, annealing at 56° C. for 45 seconds, and extension at 72° C. for 45 seconds. PCR products were detected by ethidium bromide staining and normalized by the intensity of an amplified housekeeping gene, G3PDH (see above). […] IL-6 and IL-8 protein levels in the collected supernatants were determined with a commercially available ELISA kit (Biosource, Camarillo, Calif.) according to the manufacturer's instructions."}, "IL-8 [2]": {"test_system": "IL-8", "test": "IL-8 expression in HUVECs (ELISA, RT-PCR)", "conditions": "ML-1 10 and 100 ng/ml, 24 and 48 hours, ELISA", "method": "as §3, §4\nHuman umbilical vein endothelial cells (HUVECs) were obtained from Clonetics and cultured in endothelial cell growth media (EGM; Clonetics) containing 12 μg/ml bovine brain extract, 10 ng/ml EGF, 1 μg/ml hydrocortisone, 50 μg/ml gentimicin, 50 ng/ml amphotericin B, and 5% FBS amphotericin-B (Clonetics).\nPBECs and HUVECs were treated with ML-1 100 ng/ml of ML-1 for various time points. Total RNA was extracted using RNeasy (Qiagen) from 1×10^6 cells 4 hours after stimulation or exchange of media. […]\nas §5"}, "JNK": {"test_system": "JNK", "test": "Western blotting of JNK activation in ML-1-stimulated cells", "conditions": "any time point, FIG. 6A (PBECs)", "method": "as §1\nFor analysis of activation of MAP kinases, PBECs were treated with IL-17 (100 ng/ml) for various time periods, with or without the MEK 1/2 inhibitor PD98059 ([…]; Calbiochem, La Jolla, Calif.) (15), the p38 inhibitor SB202190 (0.5-10 μM; ref. 16), or a vehicle control, DMSO (Me2SO) for 1 hour. […] Following the treatment, the cells were washed with ice-cold PBS. […]\nas §2"}}, "note": "“Also recorded” adds a separate entry of the source.", "data": [{"molecule": "B1", "values": [{"measurement": "time of maximum phosphorylation of ERK1/2", "setting": "ERK1/2", "value": 20, "unit": "min"}, {"measurement": "time of return of ERK1/2 phosphorylation to baseline levels", "setting": "ERK1/2", "value": "≤ 60", "unit": "min"}, {"measurement": "IL-8 production", "setting": "IL-8 [1]", "value": "time-dependent increase; also recorded: significantly induced"}, {"measurement": "IL-8 production", "setting": "IL-8 [2]", "value": "time-dependent increase; also recorded: significantly induced"}, {"measurement": "activation of JNK kinase", "setting": "JNK", "value": "No activation"}]}]}
